Tests used:
Settings in all cases: both partners purified
[1] = biological target: PCV2-Cap peptide aa 73–87 (Porcine circovirus 2, PCV2b strain SH); experiment: ELISA; synthetic 15-mer peptides coated (1 µg/well); mAb-1E7 or mAb-3G4 added; detection with goat anti-mouse IgG
[2] = biological target: PCV2-Cap peptide aa 75–89 (Porcine circovirus 2, PCV2b strain SH); experiment: as above
[3] = biological target: PCV2-Cap peptide aa 74–88 (Porcine circovirus 2, PCV2b strain SH); experiment: as above
[4] = biological target: T1, recombinant PCV2 capsid protein (PCV2-Cap) (Porcine circovirus 2, strain of …, UniProt D6R1Z5); experiment: Western blot
T1 construct: also called monomeric PCV2-Cap

[5] = biological target: PCV2-Cap peptide aa 69–83 (Porcine circovirus 2, PCV2b strain SH); experiment: ELISA; synthetic 15-mer peptides coated (1 µg/well); mAb-1E7 or mAb-3G4 added; detection with goat anti-mouse IgG

| Binder | binding result [1] | binding result [2] | binding result [3] | binding result [4] | binding result [5] |
| --- | --- | --- | --- | --- | --- |
| mAb-1E7 (antibody, V domains shown) VH: QIQLVQSGPELKKPGETVKISCKASGYIFTNYGMNWVKQAPGKGFKWMGWINTYTGEPTYVDDFKGRFAFSLETSASTVYLQINNLKNEDTATYFCARSLENWGQGTTLTVSS VL: DIVMTQAAFSNPVTLGTSASISCRSSKSLLHSNGITYLYWYLQKPGQSPQLLIYQMSNLASGVPDRFSSSGSGTDFTLRISRVEAEDVGVYYCAQNVELPTFGGGTKLEIK | binds | binds | binds |  |  |
| mAb-3G4 (antibody, V domains shown) VH: QVTLKESGPGILQPSQTLSLTCSFSGFSLSTSGMVVGWIRQPSGKGLEWLAHIWWDDVKRYNPALKSRLTISKDTSNSQVFLKIASVDTADTATYYCARSPFFAYWGQGTLVTISP VL: DIQMTQSPSSLSASLGERVSLTCRASQDIGSNLNWLQKRSDGSIKRLIYATSSLDSGVPKRFSGSRSGSDYSLTISSLESEDFVDYYCLQYATSPYTFGGGTKLEIK |  |  |  | binds | binds |

Source: PMC10878242 (Journal of Virology, 2024)
